Molecular target: peptides of the growth hormone releasing factor (GRF) family

Protein | hydrolysis (MALDI-TOF MS, capillary zone electrophoresis)
DP IV activity of the human serum (protein) SRKTYTLTDYLKNTYRLKLYSLRWISDHEYLYKQENNILVFNAEYGNSSVFLENSTFDEFGHSINDYSISPDGQFILLEYNYVKQWRHSYTASYDIYDLNKRQLITEERIPNNTQWVTWSPVGHKLAYVWNNDIYVKIEPNLPSYRITWTGKEDIIYNGITDWVYEEEVFSAYSALWWSPNGTFLAYAQFNDTEVPLIEYSFYSDESLQYPKTVRVPYPKAGAVNPTVKFFVVNTDSLSSVTNATSIQITAPASMLIGDHYLCDVTWATQERISLQWLRRIQNYSVMDICDYDESSGRWNCLVARQHIEMSTTGWVGRFRPSEPHFTLDGNSFYKIISNEEGYRHICYFQIDKKDCTFITKGTWEVIGIEALTSDYLYYISNEYKGMPGGRNLYKIQLSDYTKVTCLSCELNPERCQYYSVSFSKEAKYYQLRCSGPGLPLYTLHSSVNDKGLRVLEDNSALDKMLQNVQMPSKKLDFIILNETKFWYQMILPPHFDKSKKYPLLLDVYAGPCSQKADTVFRLNWATYLASTENIIVASFDGRGSGYQGDKIMHAINRRLGTFEVEDQIEAARQFSKMGFVDNKRIAIWGWSYGGYVTSMVLGSGSGVFKCGIAVAPVSRWEYYDSVYTERYMGLPTPEDNLDHYRNSTVMSRAENFKQVEYLLIHGTADDNVHFQQSAQISKALVDVGVDFQAMWYTDEDHGIASSTAHQHIYTHMSHFIKQCFSLP | All peptides were hydrolyzed by porcine DP IV, recombinant human DP IV or DP IV activity of the human serum
porcine kidney DP IV, wild type (protein) DSRRTYTLTDYLKSTFRVKFYTLQWISDHEYLYKQENNILLFNAEYGNSSIFLENSTFDELGYSTNDYSVSPDRQFILFEYNYVKQWRHSYTASYDIYDLNKRQLITEERIPNNTQWITWSPVGHKLAYVWNNDIYVKNEPNLSSQRITWTGKENVIYNGVTDWVYEEEVFSAYSALWWSPNGTFLAYAQFNDTEVPLIEYSFYSDESLQYPKTVRIPYPKAGAENPTVKFFVVDTRTLSPNASVTSYQIVPPASVLIGDHYLCGVTWVTEERISLQWIRRAQNYSIIDICDYDESTGRWISSVARQHIEISTTGWVGRFRPAEPHFTSDGNSFYKIISNEEGYKHICHFQTDKSNCTFITKGAWEVIGIEALTSDYLYYISNEHKGMPGGRNLYRIQLNDYTKVTCLSCELNPERCQYYSASFSNKAKYYQLRCFGPGLPLYTLHSSSSDKELRVLEDNSALDKMLQDVQMPSKKLDVINLHGTKFWYQMILPPHFDKSKKYPLLIEVYAGPCSQKVDTVFRLSWATYLASTENIIVASFDGRGSGYQGDKIMHAINRRLGTFEVEDQIEATRQFSKMGFVDDKRIAIWGWSYGGYVTSMVLGAGSGVFKCGIAVAPVSKWEYYDSVYTERYMGLPTPEDNLDYYRNSTVMSRAENFKQVEYLLIHGTADDNVHFQQSAQLSKALVDAGVDFQTMWYTDEDHGIASNMAHQHIYTHMSHFLKQCFSLP | All peptides were hydrolyzed by porcine DP IV, recombinant human DP IV or DP IV activity of the human serum

From patent publication US20060234940
